Measured values from US12624112 (MABWELL SHANGHAI BIOSCIENCE, dated 2026).
Where a chain is given by its changes, count along the chain named.

T1: ST2 on the effector cells (KU812, KU812/NF-κB-1#, HUVEC, HMC-1) (human, UniProt Q01638 19-556)
T1 sequence (looked up): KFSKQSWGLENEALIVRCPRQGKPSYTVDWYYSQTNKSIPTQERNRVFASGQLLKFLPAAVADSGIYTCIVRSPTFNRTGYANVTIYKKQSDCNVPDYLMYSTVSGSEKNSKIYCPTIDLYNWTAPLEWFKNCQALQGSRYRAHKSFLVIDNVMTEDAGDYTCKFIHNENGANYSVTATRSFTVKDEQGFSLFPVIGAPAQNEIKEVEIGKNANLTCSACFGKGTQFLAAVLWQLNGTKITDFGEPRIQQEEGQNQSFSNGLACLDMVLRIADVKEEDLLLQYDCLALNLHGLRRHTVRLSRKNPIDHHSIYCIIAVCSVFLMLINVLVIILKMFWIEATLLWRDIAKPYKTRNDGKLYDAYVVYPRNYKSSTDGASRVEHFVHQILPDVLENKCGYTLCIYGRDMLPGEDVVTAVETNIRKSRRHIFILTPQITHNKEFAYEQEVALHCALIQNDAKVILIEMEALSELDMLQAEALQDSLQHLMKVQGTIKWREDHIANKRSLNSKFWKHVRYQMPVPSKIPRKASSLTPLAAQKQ

T2: Human ST2-his (human, UniProt Q01638-2 19-328, limits assumed)
T2 construct: Expressed in CHO-K1; The printed range starts at Met1; also called human ST2 fused with a 6-histidine tag at the C-terminus
T2 sequence: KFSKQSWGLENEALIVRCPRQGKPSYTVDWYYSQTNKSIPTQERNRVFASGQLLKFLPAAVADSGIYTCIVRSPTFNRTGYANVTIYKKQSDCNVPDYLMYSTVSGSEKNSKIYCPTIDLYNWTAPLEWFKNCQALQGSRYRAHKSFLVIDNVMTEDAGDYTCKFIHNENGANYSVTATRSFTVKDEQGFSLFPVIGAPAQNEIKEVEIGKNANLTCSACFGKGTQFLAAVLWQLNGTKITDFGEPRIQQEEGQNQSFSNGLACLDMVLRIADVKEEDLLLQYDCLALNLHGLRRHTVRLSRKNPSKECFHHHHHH

B1: 5886-156-H1L1 (antibody, human IgG4 S228P, kappa, V domains shown)
VH: QVQLQESGPGLVKPSQTLSLTCTVSGYSITSDYAWNWIRQPPGKGLEWIGYIDYSGSTTYNPSLKSRVTISRDTSKNQFSLKLSSVTAADTAVYYCASTVIDSMDYWGQGTLVTVSS
VL: DIVLTQSPASLAVSPGQRATITCRASKSVSTSGHSYMHWYQQKPGQPPKLLIYLASNLESGVPARFSGSGSGTDFTLTINPVEANDAANYYCQHSREFPFTFGQGTKVEIKR
notes: Humanized antibody
B2: 5888-153-H1L1 (antibody, human IgG4 S228P, kappa, V domains shown)
VH: QVQLVQSGAEVKKPGASVKVSCKASGYTFTDYELHWVRQAPGQGLEWMGTIDPETGDTVYNQKFKARVTMTADKSTSTAYMELSSLRSEDTAVYYCTRAFYNDYDDGFAYWGQGTLVTVSS
VL: EIVMTQSPATLSLSPGERATLSCSVSSSVSYMHWYQQKPGQAPRRLIYDTSKLASGIPARFSGSGSGTDYTLTISSLEPEDAAVYYCQQWNSSPLTFGGGTKVEIKR
B3: 5888-153-H1L2 (antibody, human IgG4 S228P, kappa, V domains shown)
VH: B2 VH
VL: B2 VL with S92T
B4: 5887-41-H1L1 (antibody, human IgG4 S228P, kappa, V domains shown)
VH: B1 VH with N36D, D53R, S57D, T59Y, S98T, V100M, I101M, S103T
VL: B1 VL with H34N, F100L, V108L
B5: 5888-153-H0L0 (antibody, human IgG4 S228P, kappa, V domains shown)
VH: B2 VH with A72R, K74T, A79V, T97A
VL: B2 VL with M4L, R45L, Y70F, A82F
B6: 5888-153-H0L2 (antibody, human IgG4 S228P, kappa, V domains shown)
VH: B2 VH with A72R, K74T, A79V, T97A
VL: B2 VL with S92T
B7: 5888-116-H1L1 (antibody, human IgG4 S228P, kappa, V domains shown)
VH: B2 VH with Y32S, L34M, H35Y, T50A, V59A, Y60F, A66G, Y101D, Y104N, L116M
VL: DIQMTQSPSSLSASVGDRVTITCSASSSVNYMHWYQQKPGKAPKRLIYDTSKLASGVPSRFSGSGSGTDYTFTISSLQPEDAATYYCQQWSSNPLTFGQGTKLEIKR
B8: 5888-116-H3L1 (antibody, human IgG4 S228P, kappa, V domains shown)
VH: QVQLVQSGAEVKKPGASVKVSCKASGYTFTDSEMYWVRQAPGQGLEWMGAIDPETGDTAFNQKFKGRVTMTADKSTSTAYMELSSLRSEDTAVYYCTRAFDNDNDDAFAYWGQGTMVTVSS
VL: B7 VL
B9: 5888-153-H1L0 (antibody, human IgG4 S228P, kappa, V domains shown)
VH: B2 VH
VL: B2 VL with M4L, R45L, Y70F, A82F
B10: 5888-357-H1L1 (antibody, human IgG4 S228P, kappa, V domains shown)
VH: B2 VH with T28R, Y32S, L34M, D57G, A66G, K74R, A79V, Y104F, L116M
VL: B2 VL with V25A, S27T, N91S, S93N
B11: 5888-379-H0L0 (antibody, human IgG4 S228P, kappa, V domains shown)
VH: QVQLVQSGAEVKKPGASVKVSCKASGYTFINYGMNWVRQAPGQRLEWMGWINTYIGEPTYGDNFKGRVTITRDTSASTAYMELSSLRSEDTAVYYCAREGDGFAYWGQGTLVTVSS
VL: DIQMTQSPSSLSASVGDRVTITCKSSQSLLYSGNQNNYLAWYQQKPGKVPKLLIYGASTRESGVPSRFSGSGSGTDFTLTISSLQPEDVATYYCQNDHSYPYTFGGGTKVEIKR
B12: 5888-379-H1L1 (antibody, human IgG4 S228P, kappa, V domains shown)
VH: B11 VH with D101E
VL: B11 VL with V89L
B13: 5887-537-H1L0 (antibody, human IgG4 S228P, kappa, V domains shown)
VH: QVTLKESGPTLVKPTQTLTLTCTFSGFSLSTSGMGVGWIRQPPGKALEWLAHIWWDDVKQYNPALKSRLTITKDTSKSQVVLTMTNMDPVDTATYYCARIGGDYDYFDFWGQGTTVTVSS
VL: DIVLTQSPASLAVSPGQRATITCRASESVEYSGTSLMQWYQQKPGQPPKLLIYVASNVESGVPARFSGSGSGTDFTLTINPVEANDTANYYCQQSRKVPWTFGQGTKLEIKR

target: T1, ST2 on the effector cells (KU812, …); test: cell-based or functional assay

Binder	IC50, inhibition of KU812-IL5 production promoted by IL-33 (human IL33-his)	Maximum inhibition rate, KU812-IL5 production by IL-33	Relative activity compared with CNTO7160, KU812-IL5 production by IL-33
B1	0.0289 µg/mL	95%	222%

target: T1, ST2 on the effector cells (KU812, …); test: cell-based or functional assay; remark: another data set of the same source

Binder	IC50, inhibition of activation of KU812-NF-κB reporter gene by IL33	Maximum inhibition rate, KU812-NF-κB reporter gene	Relative activity compared with CNTO7160, KU812-NF-κB reporter gene
B2	0.0124 µg/mL	91.4%	1620%
B3	0.0441 µg/mL	85%	454%

target: Human ST2-fc (human) (UniProt Q01638); test: competition ELISA, coated ST2-fc, competitor IL33-his

Binder	IC50	Maximum inhibition rate	Relative activity compared with CNTO7160
B1	1 µg/mL	88%	125%
B4	2.23 µg/mL	92.4%	56.2%
B5	2.57 µg/mL	92.9%	44.3%
B6	0.474 µg/mL	93.5%	240%
B7	0.486 µg/mL	94.9%	219%
B8	0.611 µg/mL	90.7%	187%
B9	1.32 µg/mL	92.5%	86.2%
B2	0.624 µg/mL	93.8%	183%
B3	0.852 µg/mL	94%	134%
B10	0.49 µg/mL	93.2%	257%
B11	0.488 µg/mL	90.5%	180%
B12	0.317 µg/mL	89.5%	276%
B13	0.0882 µg/mL	88.3%	1210%

target: T2, Human ST2-his; test: SPR Biacore X100, antibody captured on protein A chip, human ST2-his injected, pH 7.4
Experimental: The experiment on the interaction between the anti-human ST2 antibodies and human ST2-his was performed using Biacore X100.
Each anti-human ST2 antibody was diluted to 2 µg/mL and captured on the surface of a protein A chip for a capture time of 60 s. Following the antibody capture, a solution of human ST2-his (2-fold gradient dilution from a starting concentration of 20 nM, to obtain 6 concentrations in total) was injected. Association was monitored for 180 s and dissociation was monitored for 700 s, and the sensor surface was regenerated by injecting a solution of glycine at pH 2.0. Kinetic data were analyzed using a simple 1:1 binding model.

Binder	Kd	koff	kon
B1	261 pM	0.000377 s⁻¹	1.45e+06 M⁻¹ s⁻¹
